According to US20210388087A1 (Chugai, published 2021):

B1: CE115HA000 H35V one-arm antibody (antibody, human IgG1, kappa, L234A L235A, N297A, name in Kabat numbering)
heavy: QVQLVESGGGVVQPGRSLRLSCAASGFTFSNAWMVWVRQAPGKGLEWVAQIKAKSNNYATYYAESVKGRFTISRDDSKNSLYLQMNSLKTEDTAVYYCRYVHYGAYYGVDAWGQGTTVTVSSASTKGPSVFPLAPSSKSTSGGTAALGCLVKDYFPEPVTVSWNSGALTSGVHTFPAVLQSSGLYSLSSVVTVPSSSLGTQTYICNVNHKPSNTKVDKKVEPKSCDKTHTCPPCPAPEAAGGPSVFLFPPKPKDTLMISRTPEVTCVVVDVSHEDPEVKFNWYVDGVEVHNAKTKPREEQYASTYRVVSVLTVLHQDWLNGKEYKCKVSNKALPAPIEKTISKAKGQPREPQVYTLPPSRCELTKNQVSLSCAVKGFYPSDIAVEWESNGQPENNYKTTPPVLDSDGSFFLVSKLTVDKSRWQQGNVFSCSVMHEALHNHYTQKSLSLSPDYKDDDDK
chain: EPKSSDKTHTCPPCPAPELLGGPSVFLFPPKPKDTLMISRTPEVTCVVVDVSHEDPEVKFNWYVDGVEVHNAKTKPREEQYNSTYRVVSVLTVLHQDWLNGKEYKCKVSNKALPAPIEKTISKAKGQPREPQVCTLPPSRDELTKNQVSLWCLVKGFYPSDIAVEWESNGQPENNYKTTPPVLDSDGSFFLYSKLTVDKSRWQQGNVFSCSVMHEALHNRYTQKSLSLSP
light: DIVMTQSPLSLPVTPGEPASISCRSSQSLVHSNRNTYLHWYQQKPGQAPRLLIYKVSNRFSGVPDRFSGSGSGTDFTLKISRVEAEDVGVYYCGQGTQVPYTFGQGTKLEIKRTVAAPSVFIFPPSDEQLKSGTASVVCLLNNFYPREAKVQWKVDNALQSGNSQESVTEQDSKDSTYSLSSTLTLSKADYEKHKVYACEVTHQGLSSPVTKSFNRGEC
B2: CE115HA000 H96G one-arm antibody (antibody, human IgG1, kappa, L234A L235A, N297A, name in Kabat numbering)
heavy: QVQLVESGGGVVQPGRSLRLSCAASGFTFSNAWMHWVRQAPGKGLEWVAQIKAKSNNYATYYAESVKGRFTISRDDSKNSLYLQMNSLKTEDTAVYYCRYVGYGAYYGVDAWGQGTTVTVSSASTKGPSVFPLAPSSKSTSGGTAALGCLVKDYFPEPVTVSWNSGALTSGVHTFPAVLQSSGLYSLSSVVTVPSSSLGTQTYICNVNHKPSNTKVDKKVEPKSCDKTHTCPPCPAPEAAGGPSVFLFPPKPKDTLMISRTPEVTCVVVDVSHEDPEVKFNWYVDGVEVHNAKTKPREEQYASTYRVVSVLTVLHQDWLNGKEYKCKVSNKALPAPIEKTISKAKGQPREPQVYTLPPSRCELTKNQVSLSCAVKGFYPSDIAVEWESNGQPENNYKTTPPVLDSDGSFFLVSKLTVDKSRWQQGNVFSCSVMHEALHNHYTQKSLSLSPDYKDDDDK
chain: EPKSSDKTHTCPPCPAPELLGGPSVFLFPPKPKDTLMISRTPEVTCVVVDVSHEDPEVKFNWYVDGVEVHNAKTKPREEQYNSTYRVVSVLTVLHQDWLNGKEYKCKVSNKALPAPIEKTISKAKGQPREPQVCTLPPSRDELTKNQVSLWCLVKGFYPSDIAVEWESNGQPENNYKTTPPVLDSDGSFFLYSKLTVDKSRWQQGNVFSCSVMHEALHNRYTQKSLSLSP
light: DIVMTQSPLSLPVTPGEPASISCRSSQSLVHSNRNTYLHWYQQKPGQAPRLLIYKVSNRFSGVPDRFSGSGSGTDFTLKISRVEAEDVGVYYCGQGTQVPYTFGQGTKLEIKRTVAAPSVFIFPPSDEQLKSGTASVVCLLNNFYPREAKVQWKVDNALQSGNSQESVTEQDSKDSTYSLSSTLTLSKADYEKHKVYACEVTHQGLSSPVTKSFNRGEC
B3: CE115HA000 H96K one-arm antibody (antibody, human IgG1, kappa, L234A L235A, N297A, name in Kabat numbering)
heavy: QVQLVESGGGVVQPGRSLRLSCAASGFTFSNAWMHWVRQAPGKGLEWVAQIKAKSNNYATYYAESVKGRFTISRDDSKNSLYLQMNSLKTEDTAVYYCRYVKYGAYYGVDAWGQGTTVTVSSASTKGPSVFPLAPSSKSTSGGTAALGCLVKDYFPEPVTVSWNSGALTSGVHTFPAVLQSSGLYSLSSVVTVPSSSLGTQTYICNVNHKPSNTKVDKKVEPKSCDKTHTCPPCPAPEAAGGPSVFLFPPKPKDTLMISRTPEVTCVVVDVSHEDPEVKFNWYVDGVEVHNAKTKPREEQYASTYRVVSVLTVLHQDWLNGKEYKCKVSNKALPAPIEKTISKAKGQPREPQVYTLPPSRCELTKNQVSLSCAVKGFYPSDIAVEWESNGQPENNYKTTPPVLDSDGSFFLVSKLTVDKSRWQQGNVFSCSVMHEALHNHYTQKSLSLSPDYKDDDDK
chain: EPKSSDKTHTCPPCPAPELLGGPSVFLFPPKPKDTLMISRTPEVTCVVVDVSHEDPEVKFNWYVDGVEVHNAKTKPREEQYNSTYRVVSVLTVLHQDWLNGKEYKCKVSNKALPAPIEKTISKAKGQPREPQVCTLPPSRDELTKNQVSLWCLVKGFYPSDIAVEWESNGQPENNYKTTPPVLDSDGSFFLYSKLTVDKSRWQQGNVFSCSVMHEALHNRYTQKSLSLSP
light: DIVMTQSPLSLPVTPGEPASISCRSSQSLVHSNRNTYLHWYQQKPGQAPRLLIYKVSNRFSGVPDRFSGSGSGTDFTLKISRVEAEDVGVYYCGQGTQVPYTFGQGTKLEIKRTVAAPSVFIFPPSDEQLKSGTASVVCLLNNFYPREAKVQWKVDNALQSGNSQESVTEQDSKDSTYSLSSTLTLSKADYEKHKVYACEVTHQGLSSPVTKSFNRGEC
B4: CE115HA000 H35Y one-arm antibody (antibody, human IgG1, kappa, L234A L235A, N297A, name in Kabat numbering)
heavy: QVQLVESGGGVVQPGRSLRLSCAASGFTFSNAWMYWVRQAPGKGLEWVAQIKAKSNNYATYYAESVKGRFTISRDDSKNSLYLQMNSLKTEDTAVYYCRYVHYGAYYGVDAWGQGTTVTVSSASTKGPSVFPLAPSSKSTSGGTAALGCLVKDYFPEPVTVSWNSGALTSGVHTFPAVLQSSGLYSLSSVVTVPSSSLGTQTYICNVNHKPSNTKVDKKVEPKSCDKTHTCPPCPAPEAAGGPSVFLFPPKPKDTLMISRTPEVTCVVVDVSHEDPEVKFNWYVDGVEVHNAKTKPREEQYASTYRVVSVLTVLHQDWLNGKEYKCKVSNKALPAPIEKTISKAKGQPREPQVYTLPPSRCELTKNQVSLSCAVKGFYPSDIAVEWESNGQPENNYKTTPPVLDSDGSFFLVSKLTVDKSRWQQGNVFSCSVMHEALHNHYTQKSLSLSPDYKDDDDK
chain: EPKSSDKTHTCPPCPAPELLGGPSVFLFPPKPKDTLMISRTPEVTCVVVDVSHEDPEVKFNWYVDGVEVHNAKTKPREEQYNSTYRVVSVLTVLHQDWLNGKEYKCKVSNKALPAPIEKTISKAKGQPREPQVCTLPPSRDELTKNQVSLWCLVKGFYPSDIAVEWESNGQPENNYKTTPPVLDSDGSFFLYSKLTVDKSRWQQGNVFSCSVMHEALHNRYTQKSLSLSP
light: DIVMTQSPLSLPVTPGEPASISCRSSQSLVHSNRNTYLHWYQQKPGQAPRLLIYKVSNRFSGVPDRFSGSGSGTDFTLKISRVEAEDVGVYYCGQGTQVPYTFGQGTKLEIKRTVAAPSVFIFPPSDEQLKSGTASVVCLLNNFYPREAKVQWKVDNALQSGNSQESVTEQDSKDSTYSLSSTLTLSKADYEKHKVYACEVTHQGLSSPVTKSFNRGEC
B5: CE115HA000 H35W one-arm antibody (antibody, human IgG1, kappa, L234A L235A, N297A, name in Kabat numbering)
heavy: QVQLVESGGGVVQPGRSLRLSCAASGFTFSNAWMWWVRQAPGKGLEWVAQIKAKSNNYATYYAESVKGRFTISRDDSKNSLYLQMNSLKTEDTAVYYCRYVHYGAYYGVDAWGQGTTVTVSSASTKGPSVFPLAPSSKSTSGGTAALGCLVKDYFPEPVTVSWNSGALTSGVHTFPAVLQSSGLYSLSSVVTVPSSSLGTQTYICNVNHKPSNTKVDKKVEPKSCDKTHTCPPCPAPEAAGGPSVFLFPPKPKDTLMISRTPEVTCVVVDVSHEDPEVKFNWYVDGVEVHNAKTKPREEQYASTYRVVSVLTVLHQDWLNGKEYKCKVSNKALPAPIEKTISKAKGQPREPQVYTLPPSRCELTKNQVSLSCAVKGFYPSDIAVEWESNGQPENNYKTTPPVLDSDGSFFLVSKLTVDKSRWQQGNVFSCSVMHEALHNHYTQKSLSLSPDYKDDDDK
chain: EPKSSDKTHTCPPCPAPELLGGPSVFLFPPKPKDTLMISRTPEVTCVVVDVSHEDPEVKFNWYVDGVEVHNAKTKPREEQYNSTYRVVSVLTVLHQDWLNGKEYKCKVSNKALPAPIEKTISKAKGQPREPQVCTLPPSRDELTKNQVSLWCLVKGFYPSDIAVEWESNGQPENNYKTTPPVLDSDGSFFLYSKLTVDKSRWQQGNVFSCSVMHEALHNRYTQKSLSLSP
light: DIVMTQSPLSLPVTPGEPASISCRSSQSLVHSNRNTYLHWYQQKPGQAPRLLIYKVSNRFSGVPDRFSGSGSGTDFTLKISRVEAEDVGVYYCGQGTQVPYTFGQGTKLEIKRTVAAPSVFIFPPSDEQLKSGTASVVCLLNNFYPREAKVQWKVDNALQSGNSQESVTEQDSKDSTYSLSSTLTLSKADYEKHKVYACEVTHQGLSSPVTKSFNRGEC
B6: CE115HA000 H96L one-arm antibody (antibody, human IgG1, kappa, L234A L235A, N297A, name in Kabat numbering)
heavy: QVQLVESGGGVVQPGRSLRLSCAASGFTFSNAWMHWVRQAPGKGLEWVAQIKAKSNNYATYYAESVKGRFTISRDDSKNSLYLQMNSLKTEDTAVYYCRYVLYGAYYGVDAWGQGTTVTVSSASTKGPSVFPLAPSSKSTSGGTAALGCLVKDYFPEPVTVSWNSGALTSGVHTFPAVLQSSGLYSLSSVVTVPSSSLGTQTYICNVNHKPSNTKVDKKVEPKSCDKTHTCPPCPAPEAAGGPSVFLFPPKPKDTLMISRTPEVTCVVVDVSHEDPEVKFNWYVDGVEVHNAKTKPREEQYASTYRVVSVLTVLHQDWLNGKEYKCKVSNKALPAPIEKTISKAKGQPREPQVYTLPPSRCELTKNQVSLSCAVKGFYPSDIAVEWESNGQPENNYKTTPPVLDSDGSFFLVSKLTVDKSRWQQGNVFSCSVMHEALHNHYTQKSLSLSPDYKDDDDK
chain: EPKSSDKTHTCPPCPAPELLGGPSVFLFPPKPKDTLMISRTPEVTCVVVDVSHEDPEVKFNWYVDGVEVHNAKTKPREEQYNSTYRVVSVLTVLHQDWLNGKEYKCKVSNKALPAPIEKTISKAKGQPREPQVCTLPPSRDELTKNQVSLWCLVKGFYPSDIAVEWESNGQPENNYKTTPPVLDSDGSFFLYSKLTVDKSRWQQGNVFSCSVMHEALHNRYTQKSLSLSP
light: DIVMTQSPLSLPVTPGEPASISCRSSQSLVHSNRNTYLHWYQQKPGQAPRLLIYKVSNRFSGVPDRFSGSGSGTDFTLKISRVEAEDVGVYYCGQGTQVPYTFGQGTKLEIKRTVAAPSVFIFPPSDEQLKSGTASVVCLLNNFYPREAKVQWKVDNALQSGNSQESVTEQDSKDSTYSLSSTLTLSKADYEKHKVYACEVTHQGLSSPVTKSFNRGEC

target: T1, CD3 epsilon homodimer protein (UniProt P07766 23-126); assay: SPR (Biacore T200), CD3 epsilon homodimer on CM4 chip, one-arm antibody as analyte, 25 C;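 also: homodimer attached to the sensor surface via amine coupling, HBS-EP+ used as running buffer during binding runs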
T1 construct: immobilized on Sensor chip CM4 by amine coupling; also called CD3 (CD3 epsilon)
T1 sequence (P07766 23-126): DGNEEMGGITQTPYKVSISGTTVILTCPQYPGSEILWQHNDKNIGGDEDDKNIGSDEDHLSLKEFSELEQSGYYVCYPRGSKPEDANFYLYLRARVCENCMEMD

Compared with B1, B2 is higher in “ratio of amounts bound (altered form / CE115HA000)” value: 0.22 for the first, 0.43 for the second.

First: B3
Second: B4
The “ratio of amounts bound (altered form / CE115HA000)” value of the first is higher: 0.38 for the first, 0.16 for the second.

Compared with B5, B6 is lower in “ratio of amounts bound (altered form / CE115HA000)” value: 0.22 for the first, 0.14 for the second.
